Source: paper PMC9579204, “A simple thermodynamic description of phase separation of Nup98 FG domains” (Nature Communications, 2022)

B1: prf.GLFG_(70×12) (domain or fragment)
chain: GGLFGGNTQPATGGLFGGNTQPATGGLFGGNTQPATGGLFGGNTQPATGGLFGGNTQPATGGLFGGNTQPATGGLFGGNTQPATGGLFGGNTQPATGGLFGGNTQPATGGLFGGNTQPATGGLFGGNTQPATGGLFGGNTQPATGGLFGGNTQPATGGLFGGNTQPATGGLFGGNTQPATGGLFGGNTQPATGGLFGGNTQPATGGLFGGNTQPATGGLFGGNTQPATGGLFGGNTQPATGGLFGGNTQPATGGLFGGNTQPATGGLFGGNTQPATGGLFGGNTQPATGGLFGGNTQPATGGLFGGNTQPATGGLFGGNTQPATGGLFGGNTQPATGGLFGGNTQPATGGLFGGNTQPATGGLFGGNTQPATGGLFGGNTQPATGGLFGGNTQPATGGLFGGNTQPATGGLFGGNTQPATGGLFGGNTQPATGGLFGGNTQPATGGLFGGNTQPATGGLFGGNTQPATGGLFGGNTQPATGGLFGGNTQPATGGLFGGNTQPATGGLFGGNTQPATGGLFGGNTQPATGGLFGGNTQPATGGLFGGNTQPATGGLFGGNTQPATGGLFGGNTQPATGGLFGGNTQPATGGLFGGNTQPATGGLFGGNTQPATGGLFGGNTQPATGGLFGGNTQPATGGLFGGNTQPATGGLFGGNTQPATGGLFGGNTQPATGGLFGGNTQPATGGLFGGNTQPATGGLFGGNTQPATGGLFGGNTQPATGGLFGGNTQPATGGLFGGNTQPATGGLFGGNTQPATGGLFGGNTQPATGGLFGGNTQPATGGLFGGNTQPATGGLFGGNTQPATGGLFGGNTQPATGGLFGGNTQPATGGLFGGNTQPAT
notes: also called N = 70; not shown: histidine tag with a SUMO cleavage site, N-terminal, cleaved
B2: prf.GLFG_(37×12) (domain or fragment)
chain: GGLFGGNTQPATGGLFGGNTQPATGGLFGGNTQPATGGLFGGNTQPATGGLFGGNTQPATGGLFGGNTQPATGGLFGGNTQPATGGLFGGNTQPATGGLFGGNTQPATGGLFGGNTQPATGGLFGGNTQPATGGLFGGNTQPATGGLFGGNTQPATGGLFGGNTQPATGGLFGGNTQPATGGLFGGNTQPATGGLFGGNTQPATGGLFGGNTQPATGGLFGGNTQPATGGLFGGNTQPATGGLFGGNTQPATGGLFGGNTQPATGGLFGGNTQPATGGLFGGNTQPATGGLFGGNTQPATGGLFGGNTQPATGGLFGGNTQPATGGLFGGNTQPATGGLFGGNTQPATGGLFGGNTQPATGGLFGGNTQPATGGLFGGNTQPATGGLFGGNTQPATGGLFGGNTQPATGGLFGGNTQPATGGLFGGNTQPATGGLFGGNTQPAT
notes: also called N = 37; 37× repeats; not shown: histidine tag with a SUMO cleavage site, N-terminal, cleaved
B3: prf.GLFG_(26×12) (domain or fragment)
chain: GGLFGGNTQPATGGLFGGNTQPATGGLFGGNTQPATGGLFGGNTQPATGGLFGGNTQPATGGLFGGNTQPATGGLFGGNTQPATGGLFGGNTQPATGGLFGGNTQPATGGLFGGNTQPATGGLFGGNTQPATGGLFGGNTQPATGGLFGGNTQPATGGLFGGNTQPATGGLFGGNTQPATGGLFGGNTQPATGGLFGGNTQPATGGLFGGNTQPATGGLFGGNTQPATGGLFGGNTQPATGGLFGGNTQPATGGLFGGNTQPATGGLFGGNTQPATGGLFGGNTQPATGGLFGGNTQPATGGLFGGNTQPAT
notes: also called N = 26; 26× repeats; source: E. coli NEB Express, soluble fraction, purified (Ni(II) chelate column, on-column bdSENP1 cleavage, lyophilized); not shown: histidine tag with a SUMO cleavage site, N-terminal, cleaved
B4: prf.GLFG_(44×12) (domain or fragment)
chain: GGLFGGNTQPATGGLFGGNTQPATGGLFGGNTQPATGGLFGGNTQPATGGLFGGNTQPATGGLFGGNTQPATGGLFGGNTQPATGGLFGGNTQPATGGLFGGNTQPATGGLFGGNTQPATGGLFGGNTQPATGGLFGGNTQPATGGLFGGNTQPATGGLFGGNTQPATGGLFGGNTQPATGGLFGGNTQPATGGLFGGNTQPATGGLFGGNTQPATGGLFGGNTQPATGGLFGGNTQPATGGLFGGNTQPATGGLFGGNTQPATGGLFGGNTQPATGGLFGGNTQPATGGLFGGNTQPATGGLFGGNTQPATGGLFGGNTQPATGGLFGGNTQPATGGLFGGNTQPATGGLFGGNTQPATGGLFGGNTQPATGGLFGGNTQPATGGLFGGNTQPATGGLFGGNTQPATGGLFGGNTQPATGGLFGGNTQPATGGLFGGNTQPATGGLFGGNTQPATGGLFGGNTQPATGGLFGGNTQPATGGLFGGNTQPATGGLFGGNTQPATGGLFGGNTQPATGGLFGGNTQPAT
notes: also called N = 44; not shown: histidine tag with a SUMO cleavage site, N-terminal, cleaved
B5: prf.GLFG_(52×12) (domain or fragment)
chain: GGLFGGNTQPATGGLFGGNTQPATGGLFGGNTQPATGGLFGGNTQPATGGLFGGNTQPATGGLFGGNTQPATGGLFGGNTQPATGGLFGGNTQPATGGLFGGNTQPATGGLFGGNTQPATGGLFGGNTQPATGGLFGGNTQPATGGLFGGNTQPATGGLFGGNTQPATGGLFGGNTQPATGGLFGGNTQPATGGLFGGNTQPATGGLFGGNTQPATGGLFGGNTQPATGGLFGGNTQPATGGLFGGNTQPATGGLFGGNTQPATGGLFGGNTQPATGGLFGGNTQPATGGLFGGNTQPATGGLFGGNTQPATGGLFGGNTQPATGGLFGGNTQPATGGLFGGNTQPATGGLFGGNTQPATGGLFGGNTQPATGGLFGGNTQPATGGLFGGNTQPATGGLFGGNTQPATGGLFGGNTQPATGGLFGGNTQPATGGLFGGNTQPATGGLFGGNTQPATGGLFGGNTQPATGGLFGGNTQPATGGLFGGNTQPATGGLFGGNTQPATGGLFGGNTQPATGGLFGGNTQPATGGLFGGNTQPATGGLFGGNTQPATGGLFGGNTQPATGGLFGGNTQPATGGLFGGNTQPATGGLFGGNTQPATGGLFGGNTQPATGGLFGGNTQPAT
notes: Engineered after the MacNup98A FG domain, GLEBS deleted; also called perfectly repeated FG domain; N = 52; source: E. coli NEB Express, extracted from inclusion bodies, purified (Ni chromatography, SUMO protease cleavage, lyophilized); not shown: histidine tag with a SUMO cleavage site, N-terminal, cleaved

How the values were obtained:
[1] = biological target: the molecule itself; assay: co-sedimentation; centrifugation assay of phase separation: FG domain diluted into 20 mM NaPi pH 6.8, 5 mM DTT, NaCl, concentration and temperature as in the figures; 21,130 × g, 30 min; pellet (FG phase) and supernatant by SDS-PAGE/Coomassie; saturation concentration = concentration left in the supernatant (Formula Set 2)
[2] = biological target: the molecule itself; assay: dynamic light scattering; self-association as LCST-type phase separation; prf.GLFG_(52×12) diluted into 20 mM NaPi pH 6.8 with 75-1200 mM NaCl, temperature raised by 1 °C per min from 2 to 40 °C; van't Hoff analysis (Formula Set 1)

Row | Protein | binding result [1] | dH of phase separation when [NaCl] = 0 (van't Hoff) [2] [kcal/mol]
1 | B1 | binds | –
2 | B2 | binds | –
3 | B3 | binds | –
4 | B4 | binds | –
5 | B5 | – | 24.4
